Reference: PMC4116807 (Biochimica et biophysica acta, 2014)

Target: the molecule itself
Experiment: AUC

B1: periplasmic sensor domain of the histidine kinase CusS (CusS 39-187) (domain or fragment, Escherichia coli W3110)
chain: VKVHFAEQDINDLKEISATLERVLNHPDETQARRLMTLEDIVSGYSNVLISLADSQGKTVYHSPGAPDIREFTRDAIPDKDAQGGEVYLLSGPTMMMPGHGHGHMEHSNWRMINLPVGPLVDGKPIYTLYIALSIDFHLHYINDLMNKLEGSS
With B1 the “stoichiometry N” value was 2.
